Settings: Saccharomyces cerevisiae (strain ATCC 204508 / S288c), 25 °C, GdnHCl, CD, NaCl 40 mM
[1] = pH 4, acetate-HCl 20 mM, structure 1YCC
[2] = pH 5, acetate-HCl 20 mM, structure 1YCC
[3] = pH 5.8, MES 20 mM, structure 1YCC
[4] = pH 6.12, MES 20 mM, structure 1YCC
[5] = pH 6.5, MES 20 mM, structure 1YCC
[6] = pH 7.2, Tris 20 mM, structure 1YCC
[7] = pH 7.5, Tris 20 mM, structure 1YCC

Sequence of Cytochrome c isoform 1 wild type, P00044 (P00044 whole entry, canonical isoform): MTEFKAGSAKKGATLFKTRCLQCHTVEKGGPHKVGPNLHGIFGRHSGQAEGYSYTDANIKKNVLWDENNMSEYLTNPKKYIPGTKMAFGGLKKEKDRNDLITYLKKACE
Sequence of Cytochrome c isoform 1 K79H, P00044 (P00044 whole entry K79H, canonical isoform): as the sequence (P00044 whole entry, canonical isoform) above, with K79H counted along it

Substance: Cytochrome c isoform 1 K79H, P00044
- denaturant m value [1]: 3.33 kcal/mol/M
- denaturant midpoint (higher = more stable) [1]: 0.51 M
- unfolding free energy [1]: 1.71 kcal/mol
- denaturant m value [2]: 3.67 kcal/mol/M
- denaturant midpoint (higher = more stable) [2]: 0.98 M
- unfolding free energy [2]: 3.6 kcal/mol
- denaturant m value [3]: 3.54 kcal/mol/M
- denaturant midpoint (higher = more stable) [3]: 1.05 M
- unfolding free energy [3]: 3.7 kcal/mol
- denaturant m value [4]: 3.31 kcal/mol/M
- denaturant midpoint (higher = more stable) [4]: 1.09 M
- unfolding free energy [4]: 3.6 kcal/mol
- denaturant m value [5]: 3.14 kcal/mol/M
- denaturant midpoint (higher = more stable) [5]: 1.12 M
- unfolding free energy [5]: 3.52 kcal/mol
- denaturant m value [6]: 2.97 kcal/mol/M
- denaturant midpoint (higher = more stable) [6]: 1.15 M
- unfolding free energy [6]: 3.41 kcal/mol
- denaturant m value [7]: 3.2 kcal/mol/M
- denaturant midpoint (higher = more stable) [7]: 1.15 M
- unfolding free energy [7]: 3.68 kcal/mol

Substance: Cytochrome c isoform 1 wild type, P00044
- denaturant m value (pH 4, acetate-HCl 20 mM): 4.1 kcal/mol/M
- denaturant midpoint (higher = more stable) (pH 4, acetate-HCl 20 mM): 0.66 M
- unfolding free energy (pH 4, acetate-HCl 20 mM): 2.72 kcal/mol
- denaturant m value (pH 4.5, acetate-HCl 20 mM): 4.28 kcal/mol/M
- denaturant midpoint (higher = more stable) (pH 4.5, acetate-HCl 20 mM): 0.96 M
- unfolding free energy (pH 4.5, acetate-HCl 20 mM): 4.11 kcal/mol
- denaturant m value (pH 5, acetate-HCl 20 mM): 4.42 kcal/mol/M
- denaturant midpoint (higher = more stable) (pH 5, acetate-HCl 20 mM): 1.08 M
- unfolding free energy (pH 5, acetate-HCl 20 mM): 4.77 kcal/mol
- denaturant m value (pH 5.8, MES 20 mM): 4.84 kcal/mol/M
- denaturant midpoint (higher = more stable) (pH 5.8, MES 20 mM): 1.09 M
- unfolding free energy (pH 5.8, MES 20 mM): 5.28 kcal/mol
- denaturant m value (pH 6.12, MES 20 mM): 4.86 kcal/mol/M
- denaturant midpoint (higher = more stable) (pH 6.12, MES 20 mM): 1.16 M
- unfolding free energy (pH 6.12, MES 20 mM): 5.66 kcal/mol
- denaturant m value (pH 6.5, MES 20 mM): 4.45 kcal/mol/M
- denaturant midpoint (higher = more stable) (pH 6.5, MES 20 mM): 1.23 M
- unfolding free energy (pH 6.5, MES 20 mM): 5.44 kcal/mol
- denaturant m value (pH 7.2, Tris 20 mM): 4.31 kcal/mol/M
- denaturant midpoint (higher = more stable) (pH 7.2, Tris 20 mM): 1.09 M
- unfolding free energy (pH 7.2, Tris 20 mM): 4.68 kcal/mol
- denaturant m value (pH 7.5, Tris 20 mM): 4.92 kcal/mol/M
- denaturant midpoint (higher = more stable) (pH 7.5, Tris 20 mM): 1.15 M
- unfolding free energy (pH 7.5, Tris 20 mM): 5.66 kcal/mol

From FireProtDB (doi:10.1021/bi981698k)
